According to publication PMC2788528:

Biological target: CEACAM3 WT-HA-CyPet, tyrosine-phosphorylated (coexpressed with v-Src) (UniProt P40198)
Assay: FRET or BRET; flow cytometric FRET in intact cotransfected 293T cells (with or without v-Src); CyPet and YPet double-positive cells gated; FRET channel excitation 405 nm, emission 525/50 nm; LSR II

Sequence of UniProt P40198 (P40198 35-252): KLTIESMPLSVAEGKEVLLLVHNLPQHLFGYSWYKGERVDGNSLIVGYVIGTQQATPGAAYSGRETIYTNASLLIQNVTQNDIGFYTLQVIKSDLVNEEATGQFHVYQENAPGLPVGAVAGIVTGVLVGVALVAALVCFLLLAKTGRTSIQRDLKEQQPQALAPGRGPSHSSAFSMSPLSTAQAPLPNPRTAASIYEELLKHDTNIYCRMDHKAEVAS

fold increase in the mean fluorescence intensity in the FRET channel: 4 fold
Substance: YPet-Hck-SH2 (SH2 domain of human Hck fused to YPet) (from UniProt P08631 144-241) (domain or fragment)
